Reference: US20040132029, “Method of error reduction in nucleic acid populations” (published 2004)

Biological target: T1, MutS (MutSt) (UniProt Q56215 Q56215:1-811)
T1 sequence: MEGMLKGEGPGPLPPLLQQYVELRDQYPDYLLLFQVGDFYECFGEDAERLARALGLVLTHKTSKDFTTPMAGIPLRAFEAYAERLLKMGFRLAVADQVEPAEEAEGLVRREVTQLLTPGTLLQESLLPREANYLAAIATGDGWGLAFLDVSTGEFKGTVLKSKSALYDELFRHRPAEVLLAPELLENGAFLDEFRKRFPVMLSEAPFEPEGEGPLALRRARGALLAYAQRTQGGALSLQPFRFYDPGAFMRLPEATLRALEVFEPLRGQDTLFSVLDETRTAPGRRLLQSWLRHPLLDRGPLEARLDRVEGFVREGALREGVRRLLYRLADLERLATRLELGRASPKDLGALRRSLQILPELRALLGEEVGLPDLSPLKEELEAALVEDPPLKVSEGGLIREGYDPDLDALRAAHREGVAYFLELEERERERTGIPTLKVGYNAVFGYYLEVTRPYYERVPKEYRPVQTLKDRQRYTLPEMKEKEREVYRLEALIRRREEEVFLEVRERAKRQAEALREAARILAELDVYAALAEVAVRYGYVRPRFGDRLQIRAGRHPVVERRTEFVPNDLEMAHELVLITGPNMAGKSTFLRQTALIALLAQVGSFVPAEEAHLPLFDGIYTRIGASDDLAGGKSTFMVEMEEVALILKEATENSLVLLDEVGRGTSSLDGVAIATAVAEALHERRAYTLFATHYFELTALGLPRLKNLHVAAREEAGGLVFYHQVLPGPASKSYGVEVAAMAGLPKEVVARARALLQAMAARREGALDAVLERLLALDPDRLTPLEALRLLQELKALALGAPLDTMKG
Test: EMSA; 10 mM Tris-HCl pH 8.8, 5 mM MgCl2, 0.1% Triton X-100, 37 C; preferred over wt; tenfold unlabeled del20 competes, proteinase K removes shift
Conditions: tags: Epicenter Technologies, Madison, Wis; label: 5' fluorescein on anti-sense strand; single unpaired base (deletion at position 20 of anti-sense)
Experimental: In a typical reaction 80 pmols of unlabeled sense strand were mixed with 40 pmols of Cy5 labeled anti-sense strand and 40 pmols of fluorescein labeled mutant strand (del20 or C>A) in 1× Muts buffer ( 10 mM Tris-HCl pH 8.8, 5 mM MgCl₂, 0.1% TritonX-100). The mixture was annealed in a thermocycler after being first denatured at 95° C. for 5 minutes. The mixture was then cooled at 0.2° C./sec until temperature reaches 25° C. The duplex DNA thus created is illustrated in FIG. 5.
2 or 6 μg of MutSₜ protein (Epicenter Technologies, Madison, Wis.) was added to the annealed oligonucleotides. The mixture was then incubated at 37° C. for 30 minutes.

B1: GFPuv 351-390 del20 heteroduplex (dsDNA)
DNA 1: GTTAATGGGCACAAATTTTCTGTCAGTGGAGAGGGTGAAG
DNA 2: CTTCACCCTCTCCACTGACGAAAATTTGTGCCCATTAAC
binding result: binds
